Assays:
[1] = target: Trypsin (UniProt P00760)
[2] = target: Trypsin (UniProt P00760); remark: listed apart in the source

Chain of UniProt P00760 (P00760 18-246): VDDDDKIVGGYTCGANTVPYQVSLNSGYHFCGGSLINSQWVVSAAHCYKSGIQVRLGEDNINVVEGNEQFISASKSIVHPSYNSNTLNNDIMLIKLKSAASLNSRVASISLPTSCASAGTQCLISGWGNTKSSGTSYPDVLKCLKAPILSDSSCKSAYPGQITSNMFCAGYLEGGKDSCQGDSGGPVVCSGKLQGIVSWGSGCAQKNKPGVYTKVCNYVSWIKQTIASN

- antitrypsin activity (%), substrate BApNa 1.25 mM, TTI 0.7 mg/mL after the gastric phase of simulated digestion (TTI remained intact) [1]: 96.6%
- antitrypsin activity (%), substrate BApNa 1.25 mM, TTI intact 0.7 mg/mL, no digestion [1]: 96.3%
- antitrypsin activity (%) of the eluate from Trypsin-Sepharose [2]: 97%
Substance: trypsin inhibitor isolated from tamarind seeds (natural protein)

— publication PMC9621272
